Data published in paper PMC4441004, “Functional Characterization and Categorization of Missense Mutations that Cause Methylmalonyl‐CoA Mutase (MUT) Deficiency” (Human Mutation, 2014).
Positions count from the first letter of the chain named.

B1: MUT p.F573S (enzyme, human)
chain: LHQQQPLHPEWAALAKKQLKGKNPEDLIWHTPEGISIKPLYSKRDTMDLPEELPGVKPFTRGPYPTMYTFRPWTIRQYAGFSTVEESNKFYKDNIKAGQQGLSVAFDLATHRGYDSDNPRVRGDVGMAGVAIDTVEDTKILFDGIPLEKMSVSMTMNGAVIPVLANFIVTGEEQGVPKEKLTGTIQNDILKEFMVRNTYIFPPEPSMKIIADIFEYTAKHMPKFNSISISGYHMQEAGADAILELAYTLADGLEYSRTGLQAGLTIDEFAPRLSFFWGIGMNFYMEIAKMRAGRRLWAHLIEKMFQPKNSKSLLLRAHCQTSGWSLTEQDPYNNIVRTAIEAMAAVFGGTQSLHTNSFDEALGLPTVKSARIARNTQIIIQEESGIPKVADPWGGSYMMECLTNDVYDAALKLINEIEEMGGMAKAVAEGIPKLRIEECAARRQARIDSGSEVIVGVNKYQLEKEDAVEVLAIDNTSVRNRQIEKLKKIKSSRDQALAERCLAALTECAASGDGNILALAVDASRARCTVGEITDALKKVSGEHKANDRMVSGAYRQEFGESKEITSAIKRVHKFMEREGRRPRLLVAKMGQDGHDRGAKVIATGFADLGFDVDIGPLFQTPREVAQQAVDADVHAVGISTLAAGHKTLVPELIKELNSLGRPDILVMCGGVIPPQDYEFLFEVGVSNVFGPGTRIPKAAVQVLDDIEKCLEKKQQSV
notes: methylmalonyl-CoA mutase (MUT), human; construct 'hMUT' of Froese et al., 2010b with a patient missense mutation; Same construct limits as m1 (see its note); source: E. coli, purified (Ni-NTA, Superdex 200, TEV cleavage, reverse Ni-NTA)
B2: MUT p.N366S (enzyme, human)
chain: B1 chain with N334S, S541F
notes: as for B1
B3: MUT p.R694W (enzyme, human)
chain: B1 chain with S541F, R662W
notes: as for B1
B4: MUT p.R369H (enzyme, human)
chain: B1 chain with R337H, S541F
notes: as for B1
B5: MUT p.Y231N (enzyme, human)
chain: B1 chain with Y199N, S541F
notes: as for B1
B6: MUT p.V633G (enzyme, human)
chain: B1 chain with S541F, V601G
notes: as for B1
B7: MUT p.R694L (enzyme, human)
chain: B1 chain with S541F, R662L
notes: as for B1
B8: MUT p.M700K (enzyme, human)
chain: B1 chain with S541F, M668K
notes: as for B1
B9: MUT p.G426R (enzyme, human)
chain: B1 chain with G394R, S541F
notes: as for B1
B10: MUT p.Q218H (enzyme, human)
chain: B1 chain with Q186H, S541F
notes: as for B1
B11: MUT p.T387I (enzyme, human)
chain: B1 chain with T355I, S541F
notes: as for B1
B12: MUT p.G717V (enzyme, human)
chain: B1 chain with S541F, G685V
notes: as for B1
B13: MUT p.P86L (enzyme, human)
chain: B1 chain with P54L, S541F
notes: as for B1
B14: MUT p.Y100C (enzyme, human)
chain: B1 chain with Y68C, S541F
notes: as for B1
B15: MUT p.G648D (enzyme, human)
chain: B1 chain with S541F, G616D
notes: as for B1

Molecular target: the molecule itself
Assay: SEC; Superdex 200 in the large-scale purification from E. coli; retention volumes of the mutants compared with wt MUT; data not shown

Stoichiometry N, 2:
B1
B2
B3
B4
B5
B6
B7
B8
B9
B10
B11
B12
B13
B14
B15
